We go through five molecules from patent US20230406935A1 (F STAR THERAPEUTICS, published 2023).

Read-outs that look alike come from different tables or passages of the source.

Test [1] deals with T1, Cynomolgus PD-L1 expressed on HEK 293 cells (cynomolgus, UniProt Q9NZQ7 19-290 (human entry)).
T1 construct: also called cell-expressed cynomolgus PD-L1
The test is described as follows: flow cytometry, HEK293 cells overexpressing the target, anti-human Fc 488. Here is the method:
(§1) Cell binding assays were performed by incubating Fcabs or mAb² proteins with either control HEK293 cells or HEK293 cells overexpressing hPD-L1 or cynomolgus PD-L1 cells for 1 hour at 4° C. Fcab/mAb binding was subsequently detected using an anti-human Fc 488 detection antibody. Fluorescent signal intensities were measured using a FACS canto.

Test [2] addresses T2, Human PD-L1 expressed on cells (human, UniProt Q9NZQ7 19-290).
T2 construct: also called cell-surface human PD-L1; hPD-L1
The test is described as above. The procedure:
as §1

Test [3] deals with T3, Biotinylated hPD-L1-Fc-Avi (human, UniProt Q9NZQ7 19-238). The test is described as follows: cell-based RBA, blocking of hPD-L1-Fc-Avi binding to HEK293 hCD80 cells; PD-L1 at 50 µg/mL.
T3 sequence (Q9NZQ7 19-238 limits assumed): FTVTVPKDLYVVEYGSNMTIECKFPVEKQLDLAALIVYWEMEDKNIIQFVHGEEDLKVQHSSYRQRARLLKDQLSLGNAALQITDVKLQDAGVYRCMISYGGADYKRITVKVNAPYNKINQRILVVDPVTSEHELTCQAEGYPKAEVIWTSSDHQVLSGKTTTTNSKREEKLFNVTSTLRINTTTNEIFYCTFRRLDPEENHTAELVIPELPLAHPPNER
Test [4] deals with T3, Biotinylated hPD-L1-Fc-Avi. The test is described as follows: cell-based RBA, blocking of hPD-L1-Fc-Avi binding to HEK293 hPD-1 cells. The procedure:
The ability of the Fcabs and mock mAb² to block hPD-1/hPD-L1 and hPD-L1/hCD80 interactions was tested in cell-based Receptor Binding Assays (RBA). […] The mix was incubated for another hour with HEK293 cells overexpressing either hPD-1 or hCD80.

Test [5] has as its target T4, Monomeric His-tagged human PD-L1 (Acro biosystems PD1-H5229) (human, UniProt Q9NZQ7 19-238).
T4 construct: also called hPD-L1-his; PD-L1-his
The test is described as follows: SPR Biacore T200, mAb^2 captured by anti-Fab on CM5, monomeric antigen in flow, 1:1 fit.

Test [6] addresses T5, Monomeric cynomolgus PD-L1 (Acro Biosciences PD1-C52H4) (cynomolgus, UniProt Q9NZQ7 19-238 (human entry)).
T5 construct: also called cynomolgus monomeric PD-L1
Described as above.

The target of test [7] is T4, Monomeric His-tagged human PD-L1 (Acro …). The test is described as follows: SPR Biacore T200 as Example 5.1, anti-Fab capture, monomeric hPD-L1-his. The procedure: Fcab and mAb² binding to human PD-L1 was assessed by both BIAcore and in a cell binding assay. To measure the affinity of the clones to monomeric hPD-L1-his, the mAb² were captured using an anti-Fab antibody coated on a CM5 chip (GE 28-9582-20 AC) and Fcabs were captured using a Protein A chip (GE 29127556) using a Biacore T200 (GE). To minimize mass transport effects, the capture level was minimized to 200RU and a fast flow rate of 75 μl/min was used. […] The analysis of the data was done using the Biacore T200 evaluation software. Curves subtracted against a blank flow cell and a run with no antigen were analysed using a 1:1 fitting model with no bulk analysis and Rmax analysed locally.
The selected CH3 domain sequences were subcloned and expressed in “mock” (MSL109) mAb² format with the LALA mutation in the CH2 domain, as described in Example 4.2.1, for further screening.
For orientation: In SPR one partner is held on a chip, and binding of the other changes the refractive index at the surface.

Test [8] has as its target T2, Human PD-L1 expressed on cells. The test is described as follows: cell-based or functional assay.
Test [9] has the same target. The test is described as follows: cell-based or functional assay. This is another data set of the same source.
For test [10] the target is unchanged. The test is described as follows: cell-based blocking of biotinylated PD-1 Fc binding to HEK 293 hPD-L1 cells, flow cytometry. The procedure: The blocking activity of the clones produced in Example 2.2.1 was analysed in a cell-based assay using HEK 293 cells overexpressing human PD-L1 (see 1.5 for development of the cell line). Briefly, HEK 293 cells expressing human PD-L1 were seeded at 1×10⁵ cells per well in a V-bottom 96-well plate in PBS. […] The plates were centrifuged at 1500 rpm for 3 minutes at 4° C. to pellet the cells. […] The plates were centrifuged at 1500 rpm for 3 minutes at 4° C. to pellet the cells, supernatant was discarded and the cells were resuspended in PBS. Streptavidin conjugated to Alexa 488 was diluted 1:1000 in PBS and 100 μl was added to the wells for 30 minutes at 4° C. The plates were centrifuged at 1500 rpm for 3 minutes at 4° C. to pellet the cells, supernatant discarded and the cells were resuspended in PBS with DAPI. The plate was read on FACS Canto (BD Bioscience) and the data analysed using FlowJoX.

The target in test [11] is T4, Monomeric His-tagged human PD-L1 (Acro …). The test is described as follows: SPR Biacore, captured on protein A, monomeric PD-L1-his in flow, 1:1 fit. The procedure: The monomeric PD-L1-his human antigen was flowed over the chip in titrating concentrations at a high flow rate to minimise mass transport limitations. The KDS were measured using a 1:1 fitting analysis with no refractive index correction and Rₘₐₓ set to local.

T4 sequence (Q9NZQ7 19-238 limits assumed): as above
T2 sequence (Q9NZQ7 19-290 limits assumed): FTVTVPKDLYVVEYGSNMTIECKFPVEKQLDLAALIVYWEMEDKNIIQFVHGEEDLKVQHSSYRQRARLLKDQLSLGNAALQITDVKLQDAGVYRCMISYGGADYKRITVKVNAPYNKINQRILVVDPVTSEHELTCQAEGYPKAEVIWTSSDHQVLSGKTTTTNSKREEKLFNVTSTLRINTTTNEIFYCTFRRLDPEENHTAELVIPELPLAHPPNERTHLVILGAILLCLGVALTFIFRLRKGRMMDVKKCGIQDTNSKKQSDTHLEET
T5 sequence (Q9NZQ7 other isoform, or with tags, fused parts or gaps limits assumed): as the sequence (Q9NZQ7 19-238 limits assumed) above, with A33T, A34S, S62N, R68Q, Q82R, F173L, T185A, T192I, H215L counted along it
T1 sequence (Q9NZQ7 other isoform, or with tags, fused parts or gaps limits assumed): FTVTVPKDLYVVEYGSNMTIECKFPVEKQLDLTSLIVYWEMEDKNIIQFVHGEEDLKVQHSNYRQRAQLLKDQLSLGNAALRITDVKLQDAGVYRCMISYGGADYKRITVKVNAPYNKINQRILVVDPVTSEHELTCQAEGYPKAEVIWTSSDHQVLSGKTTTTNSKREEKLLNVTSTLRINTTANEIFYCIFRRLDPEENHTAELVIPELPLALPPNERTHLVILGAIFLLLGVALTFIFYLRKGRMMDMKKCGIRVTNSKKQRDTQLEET

B1: FS17-33-449AA/MSL109 mock mAb^2 (bispecific antibody, human IgG1, kappa, L234A L235A)
heavy: EEQVLESGGGLVKPGGSLRLSCAASGFTFSPYSVFWVRQAPGKGLEWVSSINSDSTYKYYADSVKGRFTISRDNAENSIFLQMNSLRAEDTAVYYCARDRSYYAFSSGSLSDYYYGLDVWGQGTTVIVSSASTKGPSVFPLAPSSKSTSGGTAALGCLVKDYFPEPVTVSWNSGALTSGVHTFPAVLQSSGLYSLSSVVTVPSSSLGTQTYICNVNHKPSNTKVDKKVEPKSCDKTHTCPPCPAPEAAGGPSVFLFPPKPKDTLMISRTPEVTCVVVDVSHEDPEVKFNWYVDGVEVHNAKTKPREEQYNSTYRVVSVLTVLHQDWLNGKEYKCKVSNKALPAPIEKTISKAKGQPREPQVYTLPPSRDETGYWVSLTCLVKGFYPSDIAVEWESNGEPQYWAKTTPPVLDSDGSFFLYSKLTVSNWRWQLDDVFSCSVMHEALHNHYTQKSLSLSPGK
light: DIVMTQSPLSLSVTPGEPASISCRSSQSLLHTNGYNYLDWYVQKPGQSPQLLIYLASNRASGVPDRFSGSGSGTDFTLKISRVETEDVGVYYCMQALQIPRTFGQGTKVEIKRTVAAPSVFIFPPSDEQLKSGTASVVCLLNNFYPREAKVQWKVDNALQSGNSQESVTEQDSKDSTYSLSSTLTLSKADYEKHKVYACEVTHQGLSSPVTKSFNRGEC
As usually defined, the Kd is the equilibrium constant for the complex coming apart. As usually defined, the EC50 is the concentration giving half of the maximal effect. Read a low EC50 as an effect from little substance. Turning to B1, the Kd turned out to be 3.6 nM in test [1], 7.88 nM in [2], 0.38 nM in [5] and 0.6 nM in [6]. For the same molecule, the results for the EC50 in test [3] and in test [4] were 194 nM and 1.96 nM, respectively.

B2: FS17-33-451AA/MSL109 mock mAb^2 (bispecific antibody, human IgG1, kappa, L234A L235A)
heavy: EEQVLESGGGLVKPGGSLRLSCAASGFTFSPYSVFWVRQAPGKGLEWVSSINSDSTYKYYADSVKGRFTISRDNAENSIFLQMNSLRAEDTAVYYCARDRSYYAFSSGSLSDYYYGLDVWGQGTTVIVSSASTKGPSVFPLAPSSKSTSGGTAALGCLVKDYFPEPVTVSWNSGALTSGVHTFPAVLQSSGLYSLSSVVTVPSSSLGTQTYICNVNHKPSNTKVDKKVEPKSCDKTHTCPPCPAPEAAGGPSVFLFPPKPKDTLMISRTPEVTCVVVDVSHEDPEVKFNWYVDGVEVHNAKTKPREEQYNSTYRVVSVLTVLHQDWLNGKEYKCKVSNKALPAPIEKTISKAKGQPREPQVYTLPPSRDEEGYWVSLTCLVKGFYPSDIAVEWESNGEPQYWAKTTPPVLDSDGSFFLYSKLTVSNWRWQLDDVFSCSVMHEALHNHYTQKSLSLSPGK
light: DIVMTQSPLSLSVTPGEPASISCRSSQSLLHTNGYNYLDWYVQKPGQSPQLLIYLASNRASGVPDRFSGSGSGTDFTLKISRVETEDVGVYYCMQALQIPRTFGQGTKVEIKRTVAAPSVFIFPPSDEQLKSGTASVVCLLNNFYPREAKVQWKVDNALQSGNSQESVTEQDSKDSTYSLSSTLTLSKADYEKHKVYACEVTHQGLSSPVTKSFNRGEC
notes: also called FS17-33-451AA/MSL109 (parent 2)
One may read the koff as the rate constant with which the complex falls apart. For the molecule B2, the Kd in [7] amounted to 0.3 nM; in [1], 4.52 nM; in [2] it was 11.7 nM; in test [5] it was 0.34 nM; in test [6] it was 0.5 nM. In test [7], this molecule registered a koff of 0.000329 s⁻¹. Further, the figures for the “DO11.10 EC50” value in [8] and in [9] were 4.83 nM and 8.28 nM, respectively. Also, the EC50 stood at 190 nM in [3] and 0.92 nM in test [4].

B3: FS17-33-488AA/MSL109 (bispecific antibody, human IgG1, kappa, L234A L235A)
heavy: EEQVLESGGGLVKPGGSLRLSCAASGFTFSPYSVFWVRQAPGKGLEWVSSINSDSTYKYYADSVKGRFTISRDNAENSIFLQMNSLRAEDTAVYYCARDRSYYAFSSGSLSDYYYGLDVWGQGTTVIVSSASTKGPSVFPLAPSSKSTSGGTAALGCLVKDYFPEPVTVSWNSGALTSGVHTFPAVLQSSGLYSLSSVVTVPSSSLGTQTYICNVNHKPSNTKVDKKVEPKSCDKTHTCPPCPAPEAAGGPSVFLFPPKPKDTLMISRTPEVTCVVVDVSHEDPEVKFNWYVDGVEVHNAKTKPREEQYNSTYRVVSVLTVLHQDWLNGKEYKCKVSNKALPAPIEKTISKAKGQPREPQVYTLPPSRDEEGYWVSLTCLVKGFYPSDIAVEWESNGEPQYWAKTTPPVPDSDGTFFLYSKLTVSNWRWQLGDAFSCSVMHEALRNHYTQKSLSLSPGK
light: DIVMTQSPLSLSVTPGEPASISCRSSQSLLHTNGYNYLDWYVQKPGQSPQLLIYLASNRASGVPDRFSGSGSGTDFTLKISRVETEDVGVYYCMQALQIPRTFGQGTKVEIKRTVAAPSVFIFPPSDEQLKSGTASVVCLLNNFYPREAKVQWKVDNALQSGNSQESVTEQDSKDSTYSLSSTLTLSKADYEKHKVYACEVTHQGLSSPVTKSFNRGEC
With B3, in test [7], binding was characterised by a dissociation constant (Kd) of 0.36 nM and the koff stood at 0.00036 s⁻¹. Moreover, the “DO11.10 EC50” value in [8] was 3.25 nM.

B4: Fcab FS17-33 with LALA mutation (pTT5-FS17-33AA) (designed binder)
chain: TCPPCPAPEAAGGPSVFLFPPKPKDTLMISRTPEVTCVVVDVSHEDPEVKFNWYVDGVEVHNAKTKPREEQYNSTYRVVSVLTVLHQDWLNGKEYKCKVSNKALPAPIEKTISKAKGQPREPQVYTLPPSRDEQSGYWVSLTCLVKGFYPSDIAVEWESNGQPENNYKTTPPVLDSDGSFFLYSKLTVSNWRWQMGDFSCSVMHEALHNHYTQKSLSLSPGK
The term IC50 denotes the concentration needed to halve the response being measured. Read a high IC50 as lower potency. Turning to B4, in test [10], the IC50 is 17.7 nM.

B5: Fcab FS17-33-37 with LALA mutation (designed binder)
chain: TCPPCPAPEAAGGPSVFLFPPKPKDTLMISRTPEVTCVVVDVSHEDPEVKFNWYVDGVEVHNAKTKPREEQYNSTYRVVSVLTVLHQDWLNGKEYKCKVSNKALPAPIEKTISKAKGQPREPQVYTLPPSRDEQVGYWVSLTCLVKGFYPSDIAVEWESNGQPENNYKTTPPVLDSDGSFFLYSKLTVSNWRWQMDDFSCSVMHEALHNHYTQKSLSLSPGK
notes: also called FS17-33-37AA
Broadly, the kon is the second-order rate constant of association. Read a low kon as slow association. Regarding B5, in test [11], the Kd turned out to be 270 nM, the koff is 0.02 s⁻¹ and the kon turned out to be 76000 M⁻¹ s⁻¹. Besides, in test [10], the IC50 was determined as 8.1 nM.
